We go through one substance from article PMC7618119.

Experiment [1] addresses human μ-opioid receptor (AtT20FlpInMOR cells) (human) (UniProt P35372).
The target in experiment [2] is human μ-opioid receptor-RlucII (human) (UniProt P35372).
For experiment [3], the target named is rat HA-μ-opioid receptor (rat) (UniProt P33535).
Chain of UniProt P33535 (P33535 whole entry): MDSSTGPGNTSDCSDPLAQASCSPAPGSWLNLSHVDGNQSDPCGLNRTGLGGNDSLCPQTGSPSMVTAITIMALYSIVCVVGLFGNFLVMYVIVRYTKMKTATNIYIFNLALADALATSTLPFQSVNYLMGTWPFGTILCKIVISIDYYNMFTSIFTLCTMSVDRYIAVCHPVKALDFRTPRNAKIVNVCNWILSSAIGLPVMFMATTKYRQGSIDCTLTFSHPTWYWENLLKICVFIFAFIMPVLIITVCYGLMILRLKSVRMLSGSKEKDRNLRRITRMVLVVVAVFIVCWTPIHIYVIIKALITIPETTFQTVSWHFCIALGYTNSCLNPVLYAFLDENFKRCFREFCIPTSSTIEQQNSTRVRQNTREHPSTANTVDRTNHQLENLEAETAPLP

For the substance “[D-Ala^2, N-MePhe^4, Gly-ol]-enkephalin (peptide)”, in experiment [1], the apparent rate constant of dissociation (koff): decay of the membrane potential response to the EC75 concentration after naloxone 10 μM, AtT20 cells was more than 0.126 s⁻¹; the apparent rate of dissociation (t1/2): decay of the membrane potential response to the EC75 concentration after naloxone 10 μM, AtT20 cells was less than 5.5 s; the membrane potential dye fluorescence (hyperpolarisation) in μ-opioid receptor-expressing AtT20 cells, agonist pEC50, first set of experiments (log M (printed under pEC50)) was -7.98; the membrane potential dye fluorescence (hyperpolarisation) in μ-opioid receptor-expressing AtT20 cells, agonist pEC50, second set of experiments (log M (printed under pEC50)) is -8.12. In experiment [2], this substance showed a β-arrestin 2 translocation BRET (μ-opioid receptor-RlucII with β-arrestin-2-GFP) in HEK293T cells, agonist pEC50, first set (log M (printed under pEC50)) of -6.12 and a β-arrestin 2 translocation BRET (μ-opioid receptor-RlucII with β-arrestin-2-GFP) in HEK293T cells, agonist pEC50, second set (log M (printed under pEC50)) of -6.33. In experiment [3], the Gi protein activation BRET (decrease of BRET between Gαi1-RlucII and GFP10-Gγ2) in HEK293T cells, agonist pEC50, first set (log M (printed under pEC50)) is -6.82; the Gi protein activation BRET (decrease of BRET between Gαi1-RlucII and GFP10-Gγ2) in HEK293T cells, agonist pEC50, second set (log M (printed under pEC50)) is -6.99.
